Measurements taken from patent publication US20050112555A1, “Cytidine deaminase activators, deoxycytidine deaminase activators, Vif antagonists, and methods of screening for molecules thereof” (priority 2003, published 2005).
Where two headings read alike, the source gives them in different places.

Tests used:
apoB RNA = test: UV crosslinking RNA binding assay, apoB RNA; settings: recombinant CEM15; 20 fmol radiolabeled apoB RNA
HIV-1 GP-RNA = test: UV crosslinking RNA binding assay, HIV-1 GP-RNA; settings: recombinant CEM15 1, 2 and 4 μg; 20 fmol radiolabeled GP-RNA
[1] = system: pseudotyped HIV-1 viral particles; type: cell-based; settings: vs control 293T cells with pIRES-P vector
vif− HIV-1 particles = type: cell-based
HIV-1 p24 and RT protein = test: Western blot of HIV-1 proteins in proviral-transfected 293T cell lysates; type: cell-based; settings: ΔVif proviral DNA, 72 h, vs control pIRES-P cells
[2] = system: HIV-1 Gag-Pol mRNA (GP-RNA region); test: Northern blot of viral Gag-Pol poly A+ RNA abundance in 293T cells; type: cell-based; settings: ΔVif vs Vif+ provirus, 293T-CEM15
[3] = system: reporter apoB mRNA site C6666; test: Poisoned primer extension editing assay of reporter apoB mRNA in yeast
[4] = overexpressed in yeast, late log phase growth with galactose feeding

B1: CEM15: human cytidine deaminase (APOBEC-3G) that reduces retroviral infectivity; HA-tagged, stably expressed in 293T cells or recombinant (protein)
chain: MKPHFRNTVERMYRDTFSYNFYNRPILSRRNTVWLCYEVKTKGPSRPPLDAKIFRGQVYSELKYHPEMRFFHWFSKWRKLHRDQEYEVTWYISWSPCTKCTRDMATFLAEDPKVTLTIFVARLYYFWDPDYQEALRSLCQKRDGPRATMKIMNYDEFQHCWSKFVYSQRELFEPWNNLPKYYILLHIMLGEILRHSMDPPTFTFNFNNEPWVRGRHETYLCYEVERMHNDTWVLLNQRRGFLCNQAPHKHGFLEGRHAELCFLDVIPFWKLDLDQDYRVTCFTSWSPCFSCAQEMAKFISKNKHVSLCIFTARIYDDQGRCQEGLRTLAEAGAKISIMTYSEFKHCWDTFVDHQGCPFQPWDGLDEHSQDLSGRLRAILQNQEN
modifications: left off: small tags and cut ends
notes: human cytidine deaminase (APOBEC-3G) that reduces retroviral infectivity; HA-tagged, stably expressed in 293T cells or recombinant
RNA binding (UV crosslinking), yield of complexes compared with GP-RNA (apoB RNA): the yield of complexes was similar
RNA binding (UV crosslinking) (HIV-1 GP-RNA): bound to radiolabeled HIV-1 GP-RNA in concentration dependent manner
reduction of viral particle production ([1]; Vif+ provirus): 5 fold
reduction of viral particle production ([1]; ΔVif provirus (absence of Vif)): 100 fold
GFP expression from vif−, CEM15+ particles (vif− HIV-1 particles): indistinguishable from background fluorescence in control cells
decrease in Vif− viral infectivity (vif− HIV-1 particles): ≥ 100 fold
HIV-1 p24 and RT protein abundance (HIV-1 p24 and RT protein): marked reduction
depletion of viral RNA levels ([2]; 24 h post-transfection): 2 fold
depletion of viral RNA levels ([2]; 48 h post-transfection): 9 fold
depletion of viral RNA levels ([2]; 72 h post-transfection): 56 fold

B2: Cdd1: tetrameric cytidine deaminase from S. cerevisiae with RNA editing activity (protein, UniProt Q06549 1-142, looked up)
Cytidine deaminase: MKVGGIEDRQLEALKRAALKACELSYSPYSHFRVGCSILTNNDVIFTGANVENASYSNCICAERSAMIQVLMAGHRSGWKCMVICGDSEDQCVSPCGVCRQFINEFVVKDFPIVMLNSTGSRSKVMTMGELLPMAFGPSHLN
C to U editing of reporter apoB mRNA at site C6666 [3, 4]: 6.7%
editing level relative to negative control (empty vector) [3, 4]: ~10 ×

B3: CDA from E. coli: dimeric cytidine deaminase from E. coli, equivalent to PDB entry 1AF2 (protein, UniProt P0ABF6 1-294, looked up)
Cytidine deaminase: MHPRFQTAFAQLADNLQSALEPILADKYFPALLTGEQVSSLKSATGLDEDALAFALLPLAAACARTPLSNFNVGAIARGVSGTWYFGANMEFIGATMQQTVHAEQSAISHAWLSGEKALAAITVNYTPCGHCRQFMNELNSGLDLRIHLPGREAHALRDYLPDAFGPKDLEIKTLLMDEQDHGYALTGDALSQAAIAAANRSHMPYSKSPSGVALECKDGRIFSGSYAENAAFNPTLPPLQGALILLNLKGYDYPDIQRAVLAEKADAPLIQWDATSATLKALGCHSIDRVLLA
editing activity on reporter apoB mRNA (in words) ([3]; expressed in yeast): incapable of editing on the reporter substrate
